Results published in patent US20100166772A1 (published 2010).

What was measured:
[1] = target: ORF0657n on the cell surface of S. aureus (S. aureus, UniProt A5IS15 41-613); assay: cell-based or functional assay
[2] = target: T1, ORF0657n [42-254] (CNBr fragment of ORF0657t, SDS PAGE band 7) (S. aureus, UniProt A5IS15 42-254); assay: Western blot of CNBr fragments of ORF0657t, column Western negative, band 7
T1 construct: also called 26 kDa band
T1 sequence: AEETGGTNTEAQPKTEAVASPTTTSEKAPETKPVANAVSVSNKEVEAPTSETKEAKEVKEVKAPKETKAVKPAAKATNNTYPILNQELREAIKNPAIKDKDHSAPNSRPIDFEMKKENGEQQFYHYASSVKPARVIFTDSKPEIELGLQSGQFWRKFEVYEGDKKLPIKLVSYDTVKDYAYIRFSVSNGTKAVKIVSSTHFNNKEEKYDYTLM

[3] = target: T2, ORF0657n [255-486] (CNBr fragment of ORF0657t, SDS PAGE band 7) (S. aureus, UniProt A5IS15 255-486); assay: as above
T2 construct: also called 26 kDa band

[4] = target: T3, ORF0657n [254-384] (CNBr fragment of ORF0657t, SDS PAGE band 8) (S. aureus, UniProt A5IS15 254-384); assay: Western blot of CNBr fragments of ORF0657t, column Western negative, band 8
T3 construct: Limits as printed; also called 16 kDa band
T3 sequence (A5IS15 254-384): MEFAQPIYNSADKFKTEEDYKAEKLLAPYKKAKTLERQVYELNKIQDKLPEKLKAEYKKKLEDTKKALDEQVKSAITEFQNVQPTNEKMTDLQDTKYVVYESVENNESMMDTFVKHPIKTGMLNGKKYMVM

[5] = target: T4, ORF0657n [254-396] (CNBr fragment of ORF0657t, SDS PAGE band 8) (S. aureus, UniProt A5IS15 254-396); assay: as above
T4 construct: Limits as printed; also called 16 kDa band
T4 sequence (A5IS15 254-396): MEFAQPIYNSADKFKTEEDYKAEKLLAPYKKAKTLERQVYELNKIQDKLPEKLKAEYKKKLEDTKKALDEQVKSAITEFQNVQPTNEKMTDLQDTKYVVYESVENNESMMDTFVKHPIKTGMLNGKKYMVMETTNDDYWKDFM

[6] = target: T5, ORF0657n [343-486] (CNBr fragment of ORF0657t, SDS PAGE band 8) (S. aureus, UniProt A5IS15 343-486); assay: as above
T5 construct: Limits as printed; also called 16 kDa band
T5 sequence (A5IS15 343-486): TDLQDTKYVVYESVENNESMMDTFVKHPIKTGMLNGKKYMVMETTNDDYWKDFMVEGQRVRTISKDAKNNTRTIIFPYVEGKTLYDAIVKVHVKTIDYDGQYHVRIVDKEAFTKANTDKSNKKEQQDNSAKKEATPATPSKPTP

[7] = target: T6, ORF0657n [255-375] (CNBr fragment of ORF0657t, SDS PAGE band 9) (S. aureus, UniProt A5IS15 255-375); assay: Western blot of CNBr fragments of ORF0657t, column Western negative, band 9
T6 construct: Limits as printed; also called 13 kDa band

[8] = target: T7, ORF0657n [375-486] (CNBr fragment of ORF0657t, SDS PAGE band 9) (S. aureus, UniProt A5IS15 375-486); assay: as above
T7 construct: Limits as printed; also called 13 kDa band
T7 sequence (A5IS15 375-486): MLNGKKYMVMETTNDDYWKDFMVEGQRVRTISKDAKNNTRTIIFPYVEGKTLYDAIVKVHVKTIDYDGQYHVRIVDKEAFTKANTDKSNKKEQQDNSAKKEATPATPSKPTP

[9] = target: T8, ORF0657n [255-342] (CNBr fragment of ORF0657t, SDS PAGE band 10) (S. aureus, UniProt A5IS15 255-342); assay: Western blot of CNBr fragments of ORF0657t, column Western negative, band 10
T8 construct: Limits as printed; also called 10 kDa band
T8 sequence: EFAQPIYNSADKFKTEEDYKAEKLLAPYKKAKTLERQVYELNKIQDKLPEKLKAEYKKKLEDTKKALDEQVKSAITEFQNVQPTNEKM

[10] = target: T9, ORF0657n [397-486] (CNBr fragment of ORF0657t, SDS PAGE band 10) (S. aureus, UniProt A5IS15 397-486); assay: as above
T9 construct: Limits as printed; also called 10 kDa band
T9 sequence (A5IS15 397-486): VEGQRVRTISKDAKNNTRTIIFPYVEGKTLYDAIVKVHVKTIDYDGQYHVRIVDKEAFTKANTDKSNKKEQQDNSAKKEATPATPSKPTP

[11] = target: T10, ORF0657n [156-254] (CNBr fragment of ORF0657t, SDS PAGE bands 9 and 10) (S. aureus, UniProt A5IS15 156-254); assay: Western blot of CNBr fragments of ORF0657t, column Western negative, bands 9 and 10
T10 construct: Limits as printed; also called 13 kDa band; 10 kDa band
T10 sequence: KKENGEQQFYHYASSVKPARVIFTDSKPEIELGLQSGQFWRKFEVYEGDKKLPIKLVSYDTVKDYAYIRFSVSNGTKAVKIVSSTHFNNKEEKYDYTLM

ORF0657n on the cell surface of S. aureus, sequence (A5IS15 41-613 limits assumed): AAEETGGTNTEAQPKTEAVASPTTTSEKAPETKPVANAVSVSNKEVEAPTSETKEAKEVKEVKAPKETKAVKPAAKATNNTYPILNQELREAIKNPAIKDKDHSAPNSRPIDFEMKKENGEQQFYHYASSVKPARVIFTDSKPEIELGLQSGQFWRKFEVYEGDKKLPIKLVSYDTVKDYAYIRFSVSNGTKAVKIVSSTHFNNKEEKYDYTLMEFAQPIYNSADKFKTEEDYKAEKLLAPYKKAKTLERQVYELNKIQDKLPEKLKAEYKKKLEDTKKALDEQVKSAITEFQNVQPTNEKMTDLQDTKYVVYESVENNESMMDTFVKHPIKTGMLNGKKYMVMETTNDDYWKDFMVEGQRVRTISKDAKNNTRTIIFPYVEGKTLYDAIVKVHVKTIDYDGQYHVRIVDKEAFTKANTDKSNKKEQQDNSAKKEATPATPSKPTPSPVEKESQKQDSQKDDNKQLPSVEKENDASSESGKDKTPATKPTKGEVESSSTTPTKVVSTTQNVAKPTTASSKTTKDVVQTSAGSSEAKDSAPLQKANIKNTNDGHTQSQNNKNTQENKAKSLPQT

B1: mAb CS-D7 (antibody, human IgG1, kappa, V domains shown)
VH: QVQLQESGPGLVKPSETLSLTCTVSGGSIRSSSYYWGWFRQTPGKGLEWLGNVFFSGSAYYNPSLKNRVTISIDTSENQSSLKLTSVTAADTAVYYCARPQAYSHDSSGHSPFDLWGRGTLVTVSS
VL: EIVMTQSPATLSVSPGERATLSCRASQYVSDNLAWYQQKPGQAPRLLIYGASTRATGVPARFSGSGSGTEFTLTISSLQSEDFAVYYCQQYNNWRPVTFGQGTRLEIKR
notes: also called D7 IgG; full length IgG CS-D7
In the case of B1, the “EC50 (read off the curve)” value [1] is reported as roughly 0.02 ug mAb, the binding result [2] is reported as “no binding” and the binding result [3] is reported as “no binding”. B1: no binding [4]; no binding [5]; no binding [6]. B1: no binding [7]; no binding [8]; no binding [9]. B1: no binding [10]; no binding [11].
